# Reference: the supplement of paper PMC10567573
# ± gives the standard deviation.
# Experiment: protein stability index of a GFP-peptide fusion (GPS, HEK-293T) (PSI 1-6); higher = more stable
# [1] = treatment: DMSO, c terminus: native
# [2] = treatment: MLN4924 1 uM, 8 h, c terminus: native
# [3] = treatment: DMSO, c terminus: a fixed tail appended
# [4] = treatment: MLN4924 1 uM, 8 h, c terminus: a fixed tail appended
# 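Note: 24-mer peptide tiles fused after GFP, lentivirally expressed, FACS-sorted into six equal bins by GFP/DsRed ratio, decoded by Illumina sequencing, PSI is the read-weighted mean bin number.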
Sequence,protein stability index [1],protein stability index [2],protein stability index [3],protein stability index [4]
EIGTSDQIVPEYQEDSDISSFFC [TRIB1],3.38 ± 0.66,4.22 ± 0.82,–,–
MEGQRQESHATLTLAQAHFNNGEY [TTC32],–,–,4.42 ± 0.33,4.39 ± 0.18
RCLHASQWPVCAACPVRKFWSVG [BRF1],2.4 ± 0.14,2.17 ± 0.34,–,–
IGGAAPSLGALDLLGPATGCLLDD [SERTAD1],–,–,4.28 ± 0.19,4.17 ± 0.2
SSVEDLKAKFCSTVANDVMLRTGL [NETO1],–,–,2.97 ± 0.14,3.07 ± 0.14
PLLRWVLTLSFLVATVAVGLYAM [HMOX1],2.86 ± 0.15,2.57 ± 0.31,–,–
ERSLRLQARYHDTPYKPPAGRAAA [MYORG],–,–,3.55 ± 0.31,4.15 ± 0.11
GVCIRRCTVLRDARIRSHSWLESC [GMPPB],–,–,2.31 ± 0.35,2.15 ± 0.12
VDITPYLDQLDESLRDKVLQLQKG [INTS3],–,–,3.79 ± 0.071,4.06 ± 0.1
RHFFTSWASCLQYDFDTQYAFVGD [WDFY1],–,–,2.37 ± 0.28,2.39 ± 0.17
PDLTQAPSSLMETLEQHLNTLEGK [SNAP91],–,–,4.77 ± 0.35,5.08 ± 0.21
LPYQRRYRERRDSDTYRCEERSPS [CLK3],–,–,4.77 ± 0.12,4.81 ± 0.22
DEAKKFHLRPELRSQMQGPRTRAR [KLHL12],–,–,4.8 ± 0.1,4.67 ± 0.42
IERLRSLSPKIMQEAFLVQEVVEL [TBC1D10A],–,–,2.08 ± 0.36,2.09 ± 0.29
AAHAAQAHRERNEFPEDPEFEAVV [PI4K2A],–,–,5.29 ± 0.66,5.3 ± 0.28
NLNEDDTFLVFSKAELGALPHDFI,–,–,2.82 ± 0.2,2.87 ± 0.16
LSSLGENPQRQGLLKTPWRAASAM [GCH1],–,–,2.8 ± 0.23,3.17 ± 0.13
KILPWSPEKIGTRFLLYTNENPNN [PNLIPRP1],–,–,2.56 ± 0.28,2.89 ± 0.28
PVLLLQITVGLVFLCLQYRLRGKL [MOG],–,–,3.23 ± 0.36,3.17 ± 0.25
LLVLLLYAPVGFCLLVLRLFLGIH [AUP1],–,–,2.21 ± 0.23,2.11 ± 0.2
PDVIPLPHIYGARIKGVEVFCPLD [FAM189A2],–,–,2.55 ± 0.25,2.64 ± 0.14
SNVKVETQSDEENGRACEMNGEEC [IKZF1],–,–,5.75 ± 0.27,5.25 ± 0.36

Sequence,protein stability index [1],protein stability index [2],protein stability index [3],protein stability index [4]
ETIPLTAEKLCIYTDNSIRPEELL [CCND1],–,–,3.59 ± 0.41,3.94 ± 0.34
KLHKSQLSQALNGLSDRAKEAKEF [TRIM9],–,–,4.11 ± 0.15,4.17 ± 0.22
LTKSQVQDKPYKCTDCGKSFNHNA [ZNF8],–,–,3.32 ± 0.21,3.54 ± 0.27
QVQSLITNVESQLAEIRSDLERQN [KRT33B],–,–,3.85 ± 0.22,3.91 ± 0.1
PRAERKCPRIAPADSGRYRASPTR [ELOA2],–,–,4.47 ± 0.14,4.47 ± 0.26
ALVCLLSCLLPSSEAKLYGRCELA [SPACA3],–,–,3.18 ± 0.42,3.04 ± 0.36
TTYDRRSSQERKFMEERELLGQDE [RSPH3],–,–,5.34 ± 0.2,5.39 ± 0.23
IKTTLRELLVYIVFLVDICLLTYG [PKD2L1],–,–,2.98 ± 0.45,2.93 ± 0.53
SRGSRRRRRQRSEKKKAHYRQSSF [KCNA4],–,–,4.6 ± 0.29,4.8 ± 0.17
YCKNESGSRSNGMWAHSMTVQDYQ [ATE1],–,–,2.35 ± 0.45,2.7 ± 0.37
TFNRWGTLLAVGCNDGRIVIWDFL [RBBP5],–,–,2.35 ± 0.41,2.18 ± 0.27
SNPELDVLLLGSVDGRHLLRTLSR [DNAAF3],–,–,2.5 ± 0.28,2.56 ± 0.32
SYPMRRSYRYKLLNWAYQQVQQNK [STEAP1],–,–,2.34 ± 0.19,2.36 ± 0.25
ILHMNGSQSSTYRGTYEQDGRFEK [ZNF396],–,–,2.86 ± 0.41,3.36 ± 0.14
LPQDPHTKKALEAHCRADELASQD [PPP2R5C],–,–,5.04 ± 0.2,5.17 ± 0.27
DRGGWGISPRGAGYTFGQDISETF [PPP2CA],–,–,3.21 ± 0.18,3.3 ± 0.34
NGATDDSKTNLIVNYLPQNMTQDE [ELAVL3],–,–,5.08 ± 0.29,5.21 ± 0.041
IITQLEDSRRVTKENSHQVKEELS [TRIM63],–,–,4.28 ± 0.35,4.39 ± 0.26
AGPYLLNGSYLELSSDRVANSSSE [ADAMTSL2],–,–,4.09 ± 0.27,4.07 ± 0.17
MGVSSVIHPKNPHAPTIHFNYRYF [CPOX],–,–,2.16 ± 0.35,2.12 ± 0.18
QKAVKSCLVCQASFCELHLKPHLE [TRIM29],–,–,3.86 ± 0.19,3.86 ± 0.25
KNFSNNSNLIRHQRIHAAERLCMG [ZNF263],–,–,2.86 ± 0.73,2.73 ± 0.35

Sequence,protein stability index [1],protein stability index [2],protein stability index [3],protein stability index [4]
SSSKRYTMSRSLDGASVNENHEIY [EPB41L3],–,–,4.11 ± 0.63,4 ± 0.45
RESRGSTRGKRESESRGSSGRVKR [USP39],–,–,5.14 ± 0.32,5.24 ± 0.33
AELAETIVYARVLALHPEAPGLYN [CCDC3],–,–,1.99 ± 0.077,2.55 ± 0.2
DKEGYNSIHYAAAYGHRQCLELVS [ANKRD44],–,–,2.42 ± 0.14,2.59 ± 0.21
MERPDKAALNALQPPEFRNESSLA [VMA21],–,–,4.77 ± 0.26,4.84 ± 0.088
LLFNVKSPTDIQDSSIIRTTQDLF [RHOBTB3],–,–,2.37 ± 0.17,2.35 ± 0.32
SPPLHANTSLHVFVLDENDNAPAV [PCDHGC5],–,–,3.94 ± 0.23,3.81 ± 0.45
LEAIQLDGEILFSLLQKVSPVAHK [TBC1D10A],–,–,2.12 ± 0.48,2.01 ± 0.34
FLESQGIELNPPEKMALDPYTELR [EFHC1],–,–,3.79 ± 0.41,3.89 ± 0.35
QFQEALEELAKKRFKDKSSEEAVR [TPPP],–,–,3.49 ± 0.38,3.64 ± 0.39
DELTLARTDLEMQIEGLNEELAYL [KRT15],–,–,4.1 ± 0.21,4.42 ± 0.36
CYETLPRGQCLLYNWEEERATNHL [SPAG8],–,–,2.92 ± 0.16,3.09 ± 0.23
EREVRAKNGRVDSEDRRSRHCPYL [USP39],–,–,4.39 ± 0.24,4.5 ± 0.32
RRRIEEERLRLEQQKQQIMAALNS [ACBD3],–,–,4.05 ± 0.14,4.58 ± 0.2
SRRQEKSAGDADPENGEIKPASKP [ELOA2],–,–,5.53 ± 0.19,5.69 ± 0.1
KPGRKTNQLQYMQNVVVKTLWKHQ [BRD3],–,–,2.25 ± 0.2,2.62 ± 0.21
KLLSVIVWMLMLLLAVPNIILTNQ [P2RY14],–,–,2.79 ± 0.47,3.21 ± 0.41
CILLSALGYLLLGAATNVFLFVLA [MFSD9],–,–,2.53 ± 0.45,2.77 ± 0.27
QNCLWTLRNLSDAATKQEGMEGLL [CTNNB1],–,–,3.23 ± 0.28,3.04 ± 0.18
NEWRRPIIQFVESGDDKNSNYFSM [TRIM29],–,–,3 ± 0.3,3.12 ± 0.34
VKEKGSTLDLSDLEAEKLVMFQRR [SCD],–,–,4.06 ± 0.31,3.97 ± 0.31
